# Measurements as given in the supplement of paper PMC7877785.
# ± gives the uncertainty stated by the source.
# Assay: self-splicing fitness, log relative to wild type (ln ratio); higher = more splicing; Tetrahymena group I intron in knt gene, E. coli kanamycin selection, DiMSum; sequences stand for … in CUCUCU…GGAGGGAAAAGUUAUCAGGCAUGCACCUGGUAGCUAGUCUUUAAACCAAUAGAUUGCAUCGGUUUAAAAGGCAAGACCGUCAAAUUGCGGGAAAGGGGUCAACAGCCGUUCAGUACCAAGUCUCAGGGGAAACUUUGAGAUGGCCUUGCAAAGGGUAUGGUAAUAAGCUGACGGACAUGGUCCUAACCACGCAGCCAAGUCCUAAGUCAACAGAUCUUCUGUUGAUAUGGAUGCAGUUCACAGACUAAAUGUCGGUCGGGGAAGAUGUAUUCUUCUCAUAAGAUAUAGUCGGACCUCUCCUUAAUGGGAGCUAGCGGAUGAAGUGAUGCAACACUGGAGCCGCUGGGAACUAAUUUGUAUGCGAAAGUAUAUUGAUUAGUUUUGGAGUACUCGUGGUCG
# Summary of the method: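 DiMSum derived fitness as the error-weighted combination of fold changes across replicates, kanamycin versus no kanamycin, normalised to wild type. E. coli BL21(DE3) held the library, which randomised all eight P1ex-region intron nucleotides within the knt kanamycin-resistance gene on pET-22b(+). Six replicate transformations grew overnight at 37°C or 30°C on LB agar with or without 25 μg/mL kanamycin, also containing 100 μg/mL carbenicillin, 50 μM IPTG and 0.2% rhamnose, and pooled colonies were amplicon-sequenced on an Illumina HiSeq 2500.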
Sequence,self-splicing fitness (ln) (30 °C),self-splicing fitness (ln) (37 °C)
UCCUAGCAAUAUUACGGGGC,-3.1 ± 0.23,-2.77 ± 0.32
GAGUAGCAAUAUUACGAUUG,-2.87 ± 0.25,-2.14 ± 0.19
CACGAGCAAUAUUACGUAAA,,-1.83 ± 0.21
GAUAAGCAAUAUUACGAACU,-0.896 ± 0.079,-0.073 ± 0.11
GUGAAGCAAUAUUACGUUCA,-1.45 ± 0.078,-0.809 ± 0.09
CCACAGCAAUAUUACGACAA,-3.09 ± 0.22,-1.91 ± 0.17
GGGAAGCAAUAUUACGUCGA,-0.874 ± 0.12,-0.739 ± 0.13
AGGGAGCAAUAUUACGACGC,,-1.54 ± 0.45
CCACAGCAAUAUUACGCCUC,-2.9 ± 0.26,-2.58 ± 0.35
AGUAAGCAAUAUUACGCGCG,-1.05 ± 0.21,-0.403 ± 0.21
UGCGAGCAAUAUUACGGCCU,-1.85 ± 0.2,-1.45 ± 0.24
CUUAAGCAAUAUUACGCUCU,-2.77 ± 0.13,-2.81 ± 0.32
CGUAAGCAAUAUUACGGGAG,-2.21 ± 0.22,-2.81 ± 0.36
CGACAGCAAUAUUACGUGCC,-1.11 ± 0.12,-0.684 ± 0.14
CUUGAGCAAUAUUACGGAUG,-1.75 ± 0.11,-0.176 ± 0.11
AGGCAGCAAUAUUACGAGCA,-1.96 ± 0.12,-0.225 ± 0.12
CCUGAGCAAUAUUACGGCAA,-2.14 ± 0.22,-2.42 ± 0.21
CUCCAGCAAUAUUACGCUGG,-1.92 ± 0.23,
CUAGAGCAAUAUUACGAUUU,-3.17 ± 0.2,-1.48 ± 0.25
CGCGAGCAAUAUUACGUCUC,-3.71 ± 0.35,-2.28 ± 0.33
AUGCAGCAAUAUUACGGCGG,-1.76 ± 0.068,-0.59 ± 0.081
GCCGAGCAAUAUUACGGUAG,-1.99 ± 0.15,-3.24 ± 0.33
CAGUAGCAAUAUUACGAUUU,-2.52 ± 0.19,-1.45 ± 0.17
UUGUAGCAAUAUUACGUAAC,,-2.12 ± 0.43
AGUCAGCAAUAUUACGCAGG,-2.85 ± 0.26,-2.92 ± 0.43

Sequence,self-splicing fitness (ln) (30 °C),self-splicing fitness (ln) (37 °C)
CAACAGCAAUAUUACGCCUA,-2.08 ± 0.12,-1.31 ± 0.11
GCUGAGCAAUAUUACGAAUC,-1.15 ± 0.12,-0.914 ± 0.17
UUGUAGCAAUAUUACGGAUA,-2.68 ± 0.24,-1.42 ± 0.23
AGUCAGCAAUAUUACGAGUG,-2.14 ± 0.079,-0.966 ± 0.095
CCUCAGCAAUAUUACGAACU,-2.63 ± 0.37,-1.64 ± 0.38
GGCAAGCAAUAUUACGCACG,-1 ± 0.13,0.171 ± 0.24
GCUCAGCAAUAUUACGGACC,-0.753 ± 0.1,-0.186 ± 0.13
CCAUAGCAAUAUUACGAGGA,-2.97 ± 0.25,-2.05 ± 0.25
CGCCAGCAAUAUUACGAACA,-3.55 ± 0.26,-0.716 ± 0.11
GACCAGCAAUAUUACGUACG,-1.34 ± 0.074,-0.696 ± 0.088
CACCAGCAAUAUUACGAGUC,-4.09 ± 0.19,-1.74 ± 0.14
AUGGAGCAAUAUUACGUUAU,-2.96 ± 0.13,-1.77 ± 0.12
CGCUAGCAAUAUUACGUACU,-2.86 ± 0.15,-0.0116 ± 0.18
UCUUAGCAAUAUUACGGGUG,-0.927 ± 0.055,-0.165 ± 0.069
AAUGAGCAAUAUUACGGAUA,-1.86 ± 0.27,-1.8 ± 0.37
UCCCAGCAAUAUUACGUGUU,-3.33 ± 0.12,-2.19 ± 0.11
UUUUAGCAAUAUUACGUCUG,-0.654 ± 0.14,-0.153 ± 0.16
GUAAAGCAAUAUUACGCUUG,-2.17 ± 0.15,-1.12 ± 0.17
GGCGAGCAAUAUUACGUUCG,-3.74 ± 0.27,-1.59 ± 0.3
CUAAAGCAAUAUUACGUCUG,0.155 ± 0.049,0.458 ± 0.071
UCCAAGCAAUAUUACGGAUC,-3.49 ± 0.15,-2.9 ± 0.16
CCGAAGCAAUAUUACGCUGG,-2.83 ± 0.22,-3.49 ± 0.35
UAUGAGCAAUAUUACGCUAG,-3.34 ± 0.41,
GCUUAGCAAUAUUACGGAGC,-2.97 ± 0.19,-2.57 ± 0.41
